Assay results from PMC7552008.

Key:
NS1 RBD H7N9 = NS1 RBD H7N9 (Influenza A virus (H7N9), UniProt S4VCY8 1-73); assay: EMSA; conditions: protein: recombinant; tags: N-His thrombin-cleaved; chain copies: 2; label: 5'-32P
NS1 RBD H17N10 = NS1 RBD H17N10 (Influenza A virus (H17N10), UniProt H6QM79 1-73); assay: EMSA; conditions: protein: recombinant; tags: N-His thrombin-cleaved; chain copies: 2; label: 5'-32P
NS1 RBD H7N1 [1] = molecular target: T1, NS1 RBD H7N1 (Influenza A virus (avian H7N1; allele B), UniProt Q1PST0 1-73); assay: EMSA; conditions: protein: recombinant; tags: N-His thrombin-cleaved (vector residues remain); chain copies: 2; label: 5'-32P
NS1 RBD H7N1 [2] = molecular target: T1, NS1 RBD H7N1; assay: competition EMSA; EC50app vs labelled AWFC01; conditions: protein: recombinant, tags: N-His thrombin-cleaved (vector residues remain), chain copies: 2
NS1 RBD H7N1 [3] = molecular target: T1, NS1 RBD H7N1; assay: X-ray crystallography; 2.30 A; 2 M ammonium sulfate; conditions: protein: recombinant; tags: N-His thrombin-cleaved (vector residues remain); chain copies: 2

B1: AWFC01 (dsRNA)
RNA 1: GGUAACUGUUACAGUUACC
RNA 2: GGUAACUGUUACAGUUACC
- Kd (NS1 RBD H7N9): 3.1 ± 0.1 nM
- Kd (NS1 RBD H17N10): 1.5 ± 0.1 nM
- Kd (NS1 RBD H7N1 [1]): 0.83 ± 0.03 nM
- IC50 (NS1 RBD H7N1 [2]; label: 5'-32P): 1.7 ± 0.1 nM

Binder: AGCAAAAG (ssRNA) [DM01-mot A]
- binding result (NS1 RBD H7N1 [1]): no binding

Binder: UGAUUGAAG (ssRNA) [DM03-mot B]
- binding result (NS1 RBD H7N1 [1]): no binding

B2: ZKO (dsRNA)
RNA 1: AGACAGCAUUAUGCUGUCUUU
RNA 2: AGACAGCAUUAUGCUGUCUUU
- IC50 (NS1 RBD H7N1 [2]): 96 ± 3 nM

B3: ZKO* (dsRNA)
RNA 1: AGACAGCAUUAUGCUGUCU
RNA 2: AGACAGCAUUAUGCUGUCU
- binding result (NS1 RBD H7N1 [3]): binds
